Numbering of substitutions follows the chain as printed.
Tests used:
[1] = target: T1, MICA*008 on MEL-JUSO cells (human, UniProt Q29983 24-317); experiment: cell-based or functional assay
T1 chain: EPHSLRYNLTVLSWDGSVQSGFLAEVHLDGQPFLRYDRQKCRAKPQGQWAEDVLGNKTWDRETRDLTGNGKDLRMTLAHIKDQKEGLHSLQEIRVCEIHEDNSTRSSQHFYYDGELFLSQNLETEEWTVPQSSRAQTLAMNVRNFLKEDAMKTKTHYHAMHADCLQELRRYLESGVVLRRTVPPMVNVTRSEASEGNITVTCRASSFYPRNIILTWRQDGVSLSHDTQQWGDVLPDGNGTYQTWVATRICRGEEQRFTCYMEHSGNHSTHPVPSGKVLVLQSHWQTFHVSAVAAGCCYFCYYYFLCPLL

[2] = target: T2, MICA*004 on HCC1534 cells (human, UniProt Q29983 24-383); experiment: cell-based or functional assay
[3] = target: MICB*005 on HCC1534 cells (human); experiment: cell-based or functional assay
[4] = target: MICA*002 on PANC-1 cells (human, UniProt Q29983 24-383); experiment: cell-based or functional assay
[5] = target: T1, MICA*008 on MEL-JUSO cells; experiment: cell-based or functional assay
[6] = target: T2, MICA*004 on HCC1534 cells; experiment: cell-based or functional assay; remark: listed apart in the source
[7] = target: MICB*005 on HCC1534 cells (human); experiment: cell-based or functional assay; remark: listed apart in the source
[8] = target: T3, huMICA*002 alpha 3-his (human); experiment: SPR, Biacore 8K, antibody on Protein A chip
T3 construct: whole construct entry: GS, alpha 3 domain, GNS, His8; also called MICA002.His; MICA*002 alpha3 construct
T3 chain: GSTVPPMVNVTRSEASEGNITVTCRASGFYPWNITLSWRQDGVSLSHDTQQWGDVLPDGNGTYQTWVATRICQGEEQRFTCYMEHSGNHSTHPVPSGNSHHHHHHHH
Protocol: (§1) A Protein A sensorchip (GE Healthcare) was used following manufacturer provided protocols to capture humanized anti-MICA/B antibodies. The MICA/B alleles were passed over. Antibody binding was measured to human MICA 002, 004, 008 and MICB 005 alpha 3 domains (His tagged, in-house). Sensograms for binding of MICA/B were recorded using an injection time of 2 minutes with a flow rate of 30 ml/min, at a temperature of 25° C., and with a running buffer of 10 mM HEPES, pH 7.4, 150 mM NaCl, 3mM EDTA, and 0.005% Tween 20. After injection, disassociation of the alpha 3 domain from the antibody was monitored for 10 minutes in running buffer. The surface was regenerated between binding cycles with a 60 ul injection of 10 mM Glycine HCl pH 1.5. […] The data was analyzed using a 1:1 binding model. Sensograms of MICA alleles binding to captured anti-MICA antibody were used to calculate the dissociation constant (Kd).

[9] = target: T4, huMICA*004 alpha 3-his (human); experiment: SPR, Biacore 8K, antibody on Protein A chip
T4 construct: whole construct entry: GS, alpha 3 domain, GNS, His8; also called MICA004.His; MICA*004 alpha3 construct
T4 chain: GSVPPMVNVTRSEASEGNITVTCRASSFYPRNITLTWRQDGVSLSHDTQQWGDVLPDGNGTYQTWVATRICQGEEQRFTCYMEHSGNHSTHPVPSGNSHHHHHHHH
Protocol: as §1

[10] = target: T5, huMICA*008 alpha 3-his (human); experiment: SPR, Biacore 8K, antibody on Protein A chip
T5 construct: whole construct entry: GS, alpha 3 domain (Thr204-Ser297), GNS, His8; also the construct of the FPOP experiment; also called MICA008.His; MICA*008 alpha3 construct
T5 chain: T3 chain with G28S, W32R, T35I, S37T, Q73R
Protocol: as §1

[11] = target: T6, huMICB*005 alpha 3-his (human); experiment: SPR, Biacore 8K, antibody on Protein A chip
T6 construct: whole construct entry: GS, alpha 3 domain, GNS, His8; also called MICB005.His; MICB*005 alpha3 construct
T6 chain: T3 chain with R12C, A15V, G28S, W32R, S37T, D48N, C72R, S90G
Protocol: as §1

[12] = target: T3, huMICA*002 alpha 3-his; experiment: 'Affinity (nM)' row of Table 17; method not stated
[13] = target: T4, huMICA*004 alpha 3-his; experiment: 'Affinity (nM)' row of Table 17; method not stated
[14] = target: T6, huMICB*005 alpha 3-his; experiment: 'Affinity (nM)' row of Table 17; method not stated
[15] = target: T5, huMICA*008 alpha 3-his; experiment: 'Affinity (nM)' row of Table 17; method not stated; MICA*008 allele (column of the MEL-JUSO shedding assay)

- IC50 (mg/mL), cell shedding assay [1]: 0.00823 mg/mL
- Max inhibition, cell shedding assay [1]: 81%
- IC50 (mg/mL), cell shedding assay [2]: 0.0247 mg/mL
- Max inhibition, cell shedding assay [2]: 70%
- IC50 (mg/mL), cell shedding assay [3]: 0.0293 mg/mL
- Max inhibition, cell shedding assay [3]: 52%
- IC50 (mg/mL), cell shedding assay [4]: 0.0291 mg/mL
- Max inhibition, cell shedding assay [4]: 53%
- % Inhibition [5]: 69%
- % Inhibition [6]: 52%
- % Inhibition [7]: 49%
- Kd [8]: 0.83 nM
- Kd [9]: 0.63 nM
- Kd [10]: 0.61 nM
- Kd [11]: 0.95 nM
- Kd [12]: 0.82 nM
- Kd [13]: 0.56 nM
- Kd [14]: 2.28 nM
- Kd [15]: 0.54 nM
B1: 1D5 (antibody, V domains shown)
VH: EIQLQQSGPELVKPGASVKVSCKASGYAFTSQNIYWVKQSHGKSLEWIGYIEPYNVVPMYNPKFKGKATLTVDKSSSSAYIHLNSLTSEDSAIYYCARSGSSNFDYWGQGTTLTVSS
VL: EIILTQSPTTMAASPGEKITITCSASSSISSHYLHWYQQKSGFSPKLLIYRTSNLASGVPARFSGSGSGTSYSLTIGTMEAEDVATYYCQQGSSLPLTFGAGTKVEIK
notes: mouse variable domains; also called anti-MIC 1D5
